The supplement of paper PMC9170038

System: K4 kissing-loop RNA reporter
Experiment: apparent KD of K4 kissing-loop reporter; higher = weaker reporter binding
Settings: Eterna round: R107; input ligand: arginine 13.2 mM
Protocol: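 RNA-MaP round R107: designed RNA switches with theophylline, tryptophan, arginine or FMN aptamers are transcribed on-chip within common flanks. They are titrated with a labelled K4 kissing-loop RNA reporter in RNA-MaP buffer (100 mM Tris pH 7.5, 80 mM KCl, 4 mM MgCl2), without ligand or with the indicated ligand. Median apparent KD per design.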
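Note: bound reporter read as fluorescence of individual clusters on recovered sequencing chips by microscopy, with normalized cluster intensities fitted with a binding model.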

Sequence	apparent KD of K4 kissing-loop reporter
AAAUUUGCCACUGAUACCAGCCAGUGAUGUUGGCGGUAGUUCUAUGGUACCAUACAUUGUGGCCCUUGGCAGCAGGGCACAGAGC [Raxeisra]	99.8 nM
AUUUAAUGUAUAGAUUAUAUACAUUAUUCAGAGGAUAUGCAUUGAAGCAGAAGGCUGGAUGUAGUGAUGUUGCAAUUUUAAUUUA [JR_SSFMNA_Sub007]	247 nM
CGAUACGGAAAUACGUGUCUCUAUUCAGAAGGAGCGUGUUUGUACACAGGUAGGUCGCUGAAAUUUAAACUAGUGAUGUUAGACU [JR_SSArginiA_Sub003]	816 nM
CCAUCGCUAUUCGAUACCAGUCAAUAGGUCUUUGGCCUAUUAAUGGAGUGAUGUUCCUUAGACCCUUGGCAGCGAAUAGUGAUGG [Theophylline B K4 12]	215 nM
GCAUCCAUGGCAGGAUAUAGCUGAGUGAUGUUCAGGACCCAGUCAGUAUCCAUUACUACUGGACUUCUAGAAGGGCCAUGGAUGC	192 nM
AUGUCUGAUAGCAGUGAUGUUGCUUCGGAUACCAGACGCGAUCAUGUCCCUUGGCAGCUGACACGGCACGUGCUAGGUUAGAUGG [whbob_Ex_Theo_A_th74]	94.5 nM
UUAGAUGAUUCAUCAAGAUUGAUGAGCAAACGAGGACCGGUACGGCCGCCACUCGAGUGAUGUUCGAGAAGCUCAUCAAUCAAUU [AK4.2 EXC Tryptophan A]	120 nM
AUUCAUUUCAGAGGAUAUCGAAGGAGAGUGAUGUUCUCCCAUAGCCCAGUGAUGUUGGAAGCUAUUCGAGAAGGCUGUGGGUGGA [Same State FMN B GF 26]	270 nM
UUAUAUUUUAUAUUUAGUAGAGCUCUCACUCGAGGACCGGUACGGCCGCCACUCGAGUGAUGUUCGAGUGGGAGAGCUCUACAUU [AK3.2 EXC Tryptophan A]	104 nM
CCAUCGCUAUUCGAUACCAGUCAUUUUUUAUUUUAUUUUUUUUUUGGAGUGAUGUUCCAAGACCCUUGGCAGCGGAUAGUGAUGG [whbob_SS_Theo_B_th79]	150 nM
GUAUCGCUAGGAGGAUAUUCCAAUCCGCCUAUAAUAGGUGGUACGGAGUGAUGUUCCGAUUUACGGGAAGAAGGCCUAGUGAUAC [FMN B 17]	318 nM
CCUUCUCUUGAUAGUGAUGUUAUCAAGGACAAGGAUAUCAUCUCAAUGAGAAGGUGUCCUUGAUAACAUGGAGGUCUGAAACAGA [Omei KL FMN A Exc C v3]	249 nM
AGACUACCACACUGUCAAUAGACAGUGAACUAGGAUAUGCUGAUAAGCAGAAGGAGUGAUGUUCCUGGGUAGUCAAUAAAAUAAU [FmnAX 13 G67]	338 nM
CACGAUGAAUUCUCUAGGAGUGAUGUUUUUCGAGGACCGGUACGGCCGCCACUCGGACGACGAGCGUGGUAGCGGGCUGAAGACU [iuullin]	205 nM
ACGUGCACCAGUGAUGUUGGAAAAUAUGAAGGAGCGGGCGAAAGCCCAGGUAGGUCGCAUAAUAGCACGAGCCACGAAAGUGGCA [#SwitchBubble 20 #K4Early]	137 nM
CGUGGUGCCAAAGGAUAUCAUGCUAACGCGGUUGAGUGAUGUUCGACCCGAGAUAAGAGUGGGCAUUGAGAAGGUUGCGCAGAAG [theeternabot_sameState_KL_FMN_B_10]	125 nM
UUGGAAAGACCAGAACAGGGCCUUAUCUGGGAGGAUAUGCUGGAGGGCAGAAGGCCCAGUGAUGUUGGGCCUUGUGCUCGUUCUA [Ainanti]	125 nM

Sequence	apparent KD of K4 kissing-loop reporter
AAUGCAUUGUGAAGGAGCGCGAUAGGCAGUGAUGUUGCUUACAUUUUAUUAUGUUUUAAAACGCAGGUAGGUCGCACUUUGCAUA [JR_Nu_SSArginiB_Sub030]	163 nM
AAUGCAUAGUGAAGGAGCGCGAUAAGCAGUGAUGUUGCUUAGUUAUAAGUGUUUAUUUAUUCGCAGGUAGGUCGCACUUUGCAUA [JR_ExcArginiB_Sub019]	111 nM
CUUAUUAUGUCGGCCGCCACUCAAUGAUAAUCCACUAAAUUGCGAUUCAGUGAUGUUGAAGUGCUGAGGACCGGGACUAUUAACA [theeternabot_sameState_KL_Trp_B_22]	206 nM
AUGUCUGAUAGCAGUGAUGUUGCUUCGGAUACCAGACGAGAUCAUGUCCCUUGGCAGCUGACACGGCACGUGCUAGGUUAGAUGG [whbob_Ex_Theo_A_th73]	115 nM
AGUGAUAUAUGAGGAUAUGGGAUAGUUAAUGAGUUAGUUUUAGUGUUGUUUGGUUAGUGAUGUUAUUUAGAAGGCGUGAGUGAUG [tptymullin]	74.3 nM
UGACAUUGCUCAGAUACCAGACUUGAGGAUCACCCAGGUGCCAAACGUACAAUAAUAAAAGUCCCUUGGCAGCUGAGCAAUGUCU [TheoBX 14]	51.7 nM
UAUAUAGUGACGGCCGCCACUAUAUUAAUGUUUUUGUUAGAGUGAUGUUUUGUUUUAUAUUUUUAUAGGACCGGGUUAUAUGUUA [klppxmullin]	377 nM
GAUGGCAUGCGAGGAUAUUGUACGGAGUGAUGUUCCCAUUAUCCAGGUAUUCGAUUGACGAGUAUCCAAGAAGGCGCAUGCCAUC	121 nM
AAAGUUGAAAGUGAUACCAGACGAGUGAAGGGAAGAAAUUAAUUUGGAGUGAUGUUCCGCGUCCCUUGGCAGCACUUUGUAAUUU [Exclusion Theophylline B GF 23]	150 nM
ACGAAGGAUGGAAGGAGCGCUCGUCAGUCCUGCGAGUGAUGUUCGUGGGUAAAUAGUCGCGAGCAGGUAGGUCGCCAUCUUGAGC [Isarteza]	104 nM
AUAUAGUGAUGUUAUAUAAUAAUCUCUGAUACCAGUCAUUUAGAAGACCCUUGGCAGCAGCUAUAUAUAGGGAAACAAUACAUAA [AstrosExytheA#1]	649 nM
GCUAUGGUUGGAAGGAGCGUUGGGUUACUAAUAAGAGUGAUGUUCGAUAGUAGGUAAUUGUAGCAGGUAGGUCGCCAACUAUAGC [KL-Arg B26]	304 nM
UGAUACCAGACGGCCGCCACUGCACCAGUCAAUGACUGAGUGUAGUAUUGCUCAGUGAUGUUGAGUAGGACCGGGUCUGGUAUCU [Mod of Eli's TrypBX 8]	113 nM
CAUAGGAAACUAUGUAUCUCUCUUACUGAAGGAGCGCGUGAAAACGCAGGUAGGUCGCAGAAUUUAAUAGAGAGUGAUGUUCUCA [Ex Arginine A K4 6]	332 nM
UGCGUCGGUUCAGAUACCAGCCAAUUAGAGUCGAGUGAUGUUCGACAUUGAACGUCCAAAGGCCCUUGGCAGCUGGAUUGAGGAU [Same State Theophylline B GF 21]	104 nM
UUAAGGGUCCGAGGAUAUCUCCCAGUGAUGUUGGGCGAUACGGCCCUUAAGACGAAUGGUUGAAGGAGAGAAGGCGGCUCCCGAU [Onatbi]	132 nM

Same assay, conditions: Eterna round: R107; input ligand: none

Sequence	apparent KD of K4 kissing-loop reporter
CAUACGCAUGGAGGAUAUGAGAUUUCUCAUAUUAUUGUUUAUUCUCAGUGAUGUUGGGAUUUAAACUCAGAAGGCCAUGUGUAUG [Ex FMN B 9]	138 nM
CCUGAGUGAUGUUUAGGAGGCCCGAUAGAUACCAGAAAUACUGCGUUCCCUUGGCAGCUACGCGGACGGAAGACUACGUUACACG [theeternabot_exclusion_KL_Theo_A_16]	324 nM
CCAGGUGGAAAAGGAUAUCUAGGAGUGAUGUUCCAUAUGAAAUUAGUUUAUCACCAAACGUCGACCAGAGAAGGUUUCCCAAUUU [theeternabot_exclusion_KL_FMN_B_31]	287 nM
AAAAUAAUCCAGUGAUGUUGGUAUCCAGAUACCAGCGACGAAAGUCGCCCUUGGCAGCUGUGGACGUACAAAAUAAGUACGUCCU [#OpenEnded 9 #StaticStem #K4Early]	535 nM
GGCGCUGCCUGUGCCGCCCUCCUCGUCCCUCGAGGACCGGUACGGCCGCCACUCGAGUGAUGUUCGGGUAGCCCUCCCUGCCAGC [BDazzled - #23 Exc. Tryptophan A]	567 nM
GCUAUGGUAGGAAGGAGCGCUUAUUUAUUAAUAAGAGUGAUGUUCGAUAAUAGAUAUUUAUAGCAGGUAGGUCGCCUACUAUAGC [Arginine B K4 11]	293 nM
AGUAGUUGGGCGGCCGCCACUAGAACAGCUUUGCCAAAGGCAGAGCUCUAGAGUGAUGUUCUGGCUAGGACCGGGUCCAACUACA [#01 K4 Tryptophan B Same State]	932 nM
GUGCAGUGAUGUUGCACGAGGAAAGACGAUACCAGCCGUAAAUAAGGCCCUUGGCAGCGUAGGCCAGCAUAAAGUAUGCUAGUCU [Oresbelaen]	111 nM
AAAUUUAAUAUAUUUAAAUAAAUAUGUGAUACCAGACAUUUAUAAGUCCCUUGGCAGCACAUUGCAGUGAUGUUGCUUAUAAUAA [JR_SSTheophyA_Sub016]	89.7 nM
GGGUUCUCGUCGGCCGCCACUUCAUGUAUUUAGCAGGCUUCGCUCAGACUCAGUGAUGUUGGGUAAAGGACCGGGACACAUUCAA [theeternabot_exclusion_KL_Trp_B_50]	342 nM
AAAUUUGCCACUGAUACCAGCCAGUGAUGUUGGCGGUAGUUCUAUGGUACCAUACAUUGUGGCCCUUGGCAGCAGGGCACAGAGC [Raxeisra]	92.7 nM
AUUUAAUGUAUAGAUUAUAUACAUUAUUCAGAGGAUAUGCAUUGAAGCAGAAGGCUGGAUGUAGUGAUGUUGCAAUUUUAAUUUA [JR_SSFMNA_Sub007]	218 nM
CGAUACGGAAAUACGUGUCUCUAUUCAGAAGGAGCGUGUUUGUACACAGGUAGGUCGCUGAAAUUUAAACUAGUGAUGUUAGACU [JR_SSArginiA_Sub003]	1160 nM
CCAUCGCUAUUCGAUACCAGUCAAUAGGUCUUUGGCCUAUUAAUGGAGUGAUGUUCCUUAGACCCUUGGCAGCGAAUAGUGAUGG [Theophylline B K4 12]	260 nM
GCAUCCAUGGCAGGAUAUAGCUGAGUGAUGUUCAGGACCCAGUCAGUAUCCAUUACUACUGGACUUCUAGAAGGGCCAUGGAUGC	288 nM
AUGUCUGAUAGCAGUGAUGUUGCUUCGGAUACCAGACGCGAUCAUGUCCCUUGGCAGCUGACACGGCACGUGCUAGGUUAGAUGG [whbob_Ex_Theo_A_th74]	105 nM
UUAGAUGAUUCAUCAAGAUUGAUGAGCAAACGAGGACCGGUACGGCCGCCACUCGAGUGAUGUUCGAGAAGCUCAUCAAUCAAUU [AK4.2 EXC Tryptophan A]	139 nM
AUUCAUUUCAGAGGAUAUCGAAGGAGAGUGAUGUUCUCCCAUAGCCCAGUGAUGUUGGAAGCUAUUCGAGAAGGCUGUGGGUGGA [Same State FMN B GF 26]	271 nM
UUAUAUUUUAUAUUUAGUAGAGCUCUCACUCGAGGACCGGUACGGCCGCCACUCGAGUGAUGUUCGAGUGGGAGAGCUCUACAUU [AK3.2 EXC Tryptophan A]	99.8 nM
CCAUCGCUAUUCGAUACCAGUCAUUUUUUAUUUUAUUUUUUUUUUGGAGUGAUGUUCCAAGACCCUUGGCAGCGGAUAGUGAUGG [whbob_SS_Theo_B_th79]	117 nM
GUAUCGCUAGGAGGAUAUUCCAAUCCGCCUAUAAUAGGUGGUACGGAGUGAUGUUCCGAUUUACGGGAAGAAGGCCUAGUGAUAC [FMN B 17]	302 nM
